Test results taken from the Immune Epitope Database (IEDB).
Values belong to the sequence of their own block, whether it stands above or below them.

What was measured:
[1] = biological target: HLA-B*46:01; assay: IEDB peptide-MHC binding, purified MHC/direct/fluorescence; filed as Kd, often an IC50 or EC50 that approximates it; ≥ and ≤ were set here for values at or beyond the usual limits of such assays
[2] = biological target: HLA-A*02:01; assay: as above
[3] = biological target: HLA-B*27:05; assay: as above
[4] = biological target: HLA-B*08:02; assay: as above; conditions: source organism: Burkholderia mallei ATCC 23344
[5] = biological target: HLA-A*01:01; assay: as above
[6] = biological target: HLA-B*38:01; assay: as above; conditions: source organism: Burkholderia mallei ATCC 23344
[7] = biological target: HLA-B*40:01; assay: as above; conditions: source organism: Burkholderia mallei
[8] = biological target: HLA-B*15:01; assay: as above
[9] = biological target: HLA-B*15:17; assay: as above
[10] = biological target: HLA-A*31:01; assay: as above
[11] = biological target: HLA-A*11:01; assay: as above
[12] = biological target: HLA-A*26:01; assay: as above
[13] = biological target: HLA-B*48:01; assay: as above
[14] = biological target: HLA-A*69:01; assay: as above
[15] = biological target: HLA-B*57:01; assay: as above
[16] = biological target: HLA-B*51:01; assay: as above; conditions: source organism: Burkholderia mallei
[17] = biological target: HLA-B*58:01; assay: as above
[18] = biological target: HLA-B*39:01; assay: as above; conditions: source organism: Burkholderia mallei ATCC 23344
[19] = biological target: HLA-B*07:02; assay: as above
[20] = biological target: HLA-A*03:01; assay: as above
[21] = biological target: HLA-B*18:01; assay: as above; conditions: source organism: Burkholderia mallei
[22] = biological target: HLA-A*02:01; assay: IEDB peptide-MHC binding, purified MHC/competitive/radioactivity; filed as Kd, often an IC50 or EC50 that approximates it; ≥ and ≤ were set here for values at or beyond the usual limits of such assays; conditions: source organism: Homo sapiens
[23] = biological target: HLA-A*29:02; assay: as above; conditions: source organism: Homo sapiens
[24] = biological target: HLA-B*57:01; assay: as above; conditions: source organism: Homo sapiens
[25] = biological target: HLA-B*58:01; assay: as above; conditions: source organism: Homo sapiens
[26] = biological target: HLA-A*02:07; assay: as above; conditions: source organism: Homo sapiens
[27] = biological target: HLA-B*46:01; assay: IEDB peptide-MHC binding, purified MHC/competitive/fluorescence; filed as Kd, often an IC50 or EC50 that approximates it; ≥ and ≤ were set here for values at or beyond the usual limits of such assays; conditions: source organism: Homo sapiens
[28] = biological target: HLA-B*15:02; assay: as above; conditions: source organism: Homo sapiens
[29] = biological target: HLA-B*58:01; assay: IEDB peptide-MHC binding, cellular MHC/competitive/fluorescence; ≥ and ≤ were set here for values at or beyond the usual limits of such assays; conditions: source organism: Human herpesvirus 4 strain B95-8
[30] = biological target: HLA-B*15:02; assay: IEDB peptide-MHC binding, purified MHC/direct/fluorescence; filed as Kd, often an IC50 or EC50 that approximates it; ≥ and ≤ were set here for values at or beyond the usual limits of such assays
[31] = biological target: HLA-B*08:03; assay: as above
[32] = biological target: HLA-A*68:02; assay: as above
[33] = biological target: HLA-A*02:01; assay: IEDB peptide-MHC binding, purified MHC/competitive/fluorescence; filed as Kd, often an IC50 or EC50 that approximates it; ≥ and ≤ were set here for values at or beyond the usual limits of such assays; conditions: source organism: Giardia lamblia ATCC 50803
[34] = biological target: HLA-B*08:01; assay: as above
[35] = biological target: HLA-A*02:03; assay: as above
[36] = biological target: HLA-A*30:01; assay: as above
[37] = biological target: HLA-B*15:09; assay: as above; conditions: source organism: Giardia lamblia ATCC 50803
[38] = biological target: HLA-B*15:09; assay: IEDB peptide-MHC binding, purified MHC/direct/fluorescence; filed as Kd, often an IC50 or EC50 that approximates it; ≥ and ≤ were set here for values at or beyond the usual limits of such assays; conditions: source organism: Vibrio vulnificus CMCP6
[39] = biological target: HLA-B*27:20; assay: IEDB peptide-MHC binding, purified MHC/competitive/fluorescence; filed as Kd, often an IC50 or EC50 that approximates it; ≥ and ≤ were set here for values at or beyond the usual limits of such assays; conditions: source organism: Vibrio vulnificus YJ016
[40] = biological target: HLA-B*40:13; assay: as above; conditions: source organism: Vibrio vulnificus YJ016
[41] = biological target: HLA-B*83:01; assay: as above; conditions: source organism: Vibrio vulnificus YJ016
[42] = biological target: HLA-B*15:42; assay: as above; conditions: source organism: Vibrio vulnificus YJ016
[43] = biological target: HLA-B*45:06; assay: as above; conditions: source organism: Vibrio vulnificus YJ016
[44] = biological target: HLA-B*39:01; assay: as above; conditions: source organism: Vibrio vulnificus YJ016
[45] = biological target: HLA-A*32:07; assay: as above; conditions: source organism: Vibrio vulnificus YJ016
[46] = source organism: Burkholderia mallei
[47] = source organism: Giardia lamblia ATCC 50803
[48] = source organism: Vibrio vulnificus
[49] = source organism: Vibrio vulnificus CMCP6
[50] = source organism: Vibrio vulnificus YJ016

Sequence: AVAVARVAA
Kd [1, 46]: ≥ 20 µM
Kd [2, 46]: ≥ 20 µM
Kd [3, 46]: ≥ 20 µM
Kd [4]: ≥ 20 µM
Kd [5, 46]: ≥ 20 µM
Kd [6]: ≥ 20 µM
Kd [7]: ≥ 20 µM
Kd [8, 46]: 4.21 µM
Kd [9, 46]: ≥ 20 µM
Kd [10, 46]: ≥ 20 µM
Kd [11, 46]: ≥ 20 µM
Kd ([12]; source organism: Burkholderia mallei ATCC 23344): ≥ 20 µM
Kd [13, 46]: ≥ 20 µM
Kd [14, 46]: ≥ 20 µM
Kd [15, 46]: ≥ 20 µM
Kd [16]: ≥ 20 µM
Kd [17, 46]: ≥ 20 µM
Kd [18]: ≥ 20 µM
Kd [19, 46]: 0.217 µM
Kd [20, 46]: ≥ 20 µM
Kd [21]: ≥ 20 µM

Kd [22]: ≥ 78.1 µM
Kd [23]: 0.516 µM
Kd [24]: ≥ 61.3 µM
Kd [25]: ≥ 39.8 µM
Kd [26]: ≥ 62.7 µM
Kd [27]: 0.0167 µM
Kd [28]: 0.0039 µM
Sequence: FIKDGSSTY

Sequence: LSIFDTSLF
IC50 [29]: 5 µM

Sequence: QLKQRDALF
Kd [1, 47]: ≥ 20 µM
Kd [3, 47]: ≥ 20 µM
Kd [5, 47]: ≥ 20 µM
Kd [8, 47]: 0.027 µM
Kd [9, 47]: 0.0657 µM
Kd [10, 47]: ≥ 20 µM
Kd [11, 47]: ≥ 20 µM
Kd [12, 47]: ≥ 20 µM
Kd [13, 47]: ≥ 20 µM
Kd [14, 47]: ≥ 20 µM
Kd [15, 47]: 1.46 µM
Kd [17, 47]: ≥ 20 µM
Kd [19, 47]: ≥ 20 µM
Kd [30, 47]: 0.029 µM
Kd [31, 47]: 0.17 µM
Kd [32, 47]: ≥ 20 µM
Kd [33]: ≥ 20 µM
Kd [34, 47]: 0.135 µM
Kd [35, 47]: ≥ 20 µM
Kd [36, 47]: ≥ 20 µM
Kd [37]: ≥ 20 µM

Sequence: YQRALHTSI
Kd [1, 48]: ≥ 20 µM
Kd [2, 48]: ≥ 20 µM
Kd [3, 48]: 2.05 µM
Kd [5, 48]: ≥ 20 µM
Kd [8, 48]: 0.0962 µM
Kd [9, 48]: 0.13 µM
Kd [10, 48]: ≥ 20 µM
Kd [11, 48]: ≥ 20 µM
Kd [12, 49]: ≥ 20 µM
Kd [13, 48]: 0.0586 µM
Kd [14, 48]: ≥ 20 µM
Kd [15, 48]: ≥ 20 µM
Kd [17, 48]: ≥ 20 µM
Kd [19, 48]: 7.06 µM
Kd [30, 49]: 0.306 µM
Kd [38]: ≥ 20 µM
Kd [31, 49]: 0.055 µM
Kd [20, 48]: ≥ 20 µM
Kd [32, 48]: ≥ 20 µM
Kd [34, 50]: 0.292 µM
Kd [39]: 0.0002 µM
Kd [35, 50]: 0.0021 µM
Kd [40]: 0.0608 µM
Kd [41]: ≥ 5 µM
Kd [42]: ≥ 20 µM
Kd [36, 50]: 1.12 µM
Kd [43]: ≥ 5 µM
Kd [44]: 0.395 µM
Kd [45]: 0.454 µM
